B1: MLH1 (parent)
chain: YNIATRRKALKNPSEEYGKILEVV
B2: NP_015628.1 (parent)
chain: EQRNSRWNTVLRAVKAKTHHLEP

Variants of: B1
Assay: protein stability index of a GFP-peptide fusion (GPS, HEK-293T) (PSI 1-6); higher = more stable
Settings: c terminus: a fixed tail appended

Variant | protein stability index
YNIATRRKALKNPSEEYGKILEYV [V23Y] | 2.5
YNIATRRKALKNPSEEYGKILEGV [V23G] | 3.62
YNIATRRKALKNPSEEYGKILEFV [V23F] | 2.1
YNIATRRKALKNPSEEYGKILEIV [V23I] | 2.5
YNIATRRKALKNPSEEYGKILEKV [V23K] | 3.36
YNIATRRKALKNPSEEYGKILEPV [V23P] | 3.41
YNIATRRKALKNPSEEYGKILEDV [V23D] | 3.65
YNIATRRKALKNPSEEYGKILEQV [V23Q] | 3.34
YNIATRRKALKNPSEEYGKILESV [V23S] | 3.66
YNIATRRKALKNPSEEYGKILEHV [V23H] | 3.69
YNIATRRKALKNPSEEYGKILERV [V23R] | 3.22
YNIATRRKALKNPSEEYGKILEAV [V23A] | 3.69
YNIATRRKALKNPSEEYGKILEEV [V23E] | 4.21
YNIATRRKALKNPSEEYGKILETV [V23T] | 2.97
YNIATRRKALKNPSEEYGKILECV [V23C] | 3.03
YNIATRRKALKNPSEEYGKILENV [V23N] | 3.43
YNIATRRKALKNPSEEYGKIAEVV [L21A] | 3.69
YNIATRRKALKNPSEEYGKICEVV [L21C] | 4.26
YNIATRRKALKNPSEEYGKIIEVV [L21I] | 2.17
YNIATRRKALKNPSEEYGKIHEVV [L21H] | 3.61

Variant | protein stability index
YNIATRRKALKNPSEEYGKIDEVV [L21D] | 4.42
YNIATRRKALKNPSEEYGKITEVV [L21T] | 3.91
YNIATRRKALKNPSEEYGKIVEVV [L21V] | 3.34
YNIATRRKALKNPSEEYGKIYEVV [L21Y] | 2.46
YNIATRRKALKNPSEEYGKISEVV [L21S] | 3.76
YNIATRRKALKNPSEEYGKIGEVV [L21G] | 3.52
YNIATRRKALKNPSEEYGKIWEVV [L21W] | 2.34
YNIATRRKALKNPSEEYGKIQEVV [L21Q] | 3.8
YNIATRRKALKNPSEEYGKIEEVV [L21E] | 4.02
YNIATRRKALKNPSEEYGKINEVV [L21N] | 4.33
YNIATRRKALKNPSEEYGKILPVV [E22P] | 2.49
YNIATRRKALKNPSEEYGKILMVV [E22M] | 2.09
YNIATRRKALKNPSEEYGKILKVV [E22K] | 2.18
YNIATRRKALKNPSEEYGKILFVV [E22F] | 2.32
YNIATRRKALKNPSEEYGKILTVV [E22T] | 2.19
YNIATRRKALKNPSEEYGKILQVV [E22Q] | 2.42
YNIATRRKALKNPSEEYGKILDVV [E22D] | 3.33
YNIATRRKALKNPSEEYGKILVVV [E22V] | 3.63
YNIATRRKALKNPSEEYGKILAVV [E22A] | 2.59
YNIATRRKALKNPSEEYGKILGVV [E22G] | 2.42

Variant | protein stability index
YNIATRRKALKNPSEEYGKILHVV [E22H] | 2.43
YNIATRRKALKNPSEEYGKILYVV [E22Y] | 2.27
YNIATRRKALKNPSEEYGKILCVV [E22C] | 1.75
YNIATRRKALKNPSEEYGKILLVV [E22L] | 2.54
YNIATRRKALKNPSEEYGKYLEVV [I20Y] | 3.18
YNIATRRKALKNPSEEYGKILEVF [V24F] | 2.98
YNIATRRKALKNPSEEYGKILEVP [V24P] | 4.07
YNIATRRKALKNPSEEYGKILEVL [V24L] | 2.45
YNIATRRKALKNPSEEYGKILEVN [V24N] | 3.64
YNIATRRKALKNPSEEYGKILEVA [V24A] | 3.79
YNIATRRKALKNPSEEYGKILEVE [V24E] | 3.98
YNIATRRKALKNPSEEYGKILEVH [V24H] | 3.11
YNIATRRKALKNPSEEYGKILEVQ [V24Q] | 3.52
YNIATRRKALKNPSEEYGKILEVD [V24D] | 3.66
YNIATRRKALKNPSEEYGKILEVG [V24G] | 3.32
YNIATRRKALKNPSEEYGKILEVC [V24C] | 3.37
YNIATRRKALKNPSEEYGKILEVK [V24K] | 3.77
YNIATRRKALKNPSEEYGKILEVW [V24W] | 1.96

Variants of: B2
Assay: as above
Settings: c terminus: native

Variant | protein stability index
NQRNSRWNTVLRAVKAKTHHLEP [E1N] | 2.91
LQRNSRWNTVLRAVKAKTHHLEP [E1L] | 2.87
SQRNSRWNTVLRAVKAKTHHLEP [E1S] | 2.4
PQRNSRWNTVLRAVKAKTHHLEP [E1P] | 2.74
YQRNSRWNTVLRAVKAKTHHLEP [E1Y] | 3.33
AQRNSRWNTVLRAVKAKTHHLEP [E1A] | 2.66
RQRNSRWNTVLRAVKAKTHHLEP [E1R] | 3.15
TQRNSRWNTVLRAVKAKTHHLEP [E1T] | 2.27
MQRNSRWNTVLRAVKAKTHHLEP [E1M] | 2.95
HQRNSRWNTVLRAVKAKTHHLEP [E1H] | 2.91
QQRNSRWNTVLRAVKAKTHHLEP [E1Q] | 3.13
FQRNSRWNTVLRAVKAKTHHLEP [E1F] | 2.52
KQRNSRWNTVLRAVKAKTHHLEP [E1K] | 2.12
IQRNSRWNTVLRAVKAKTHHLEP [E1I] | 2.79
WQRNSRWNTVLRAVKAKTHHLEP [E1W] | 2.94
VQRNSRWNTVLRAVKAKTHHLEP [E1V] | 2.65
GQRNSRWNTVLRAVKAKTHHLEP [E1G] | 2.9
CQRNSRWNTVLRAVKAKTHHLEP [E1C] | 2.79
EQRNSRKNTVLRAVKAKTHHLEP [W7K] | 5.46

Variant | protein stability index
EQRNSRDNTVLRAVKAKTHHLEP [W7D] | 5.12
EQRNSRFNTVLRAVKAKTHHLEP [W7F] | 4.71
EQRNSRNNTVLRAVKAKTHHLEP [W7N] | 4.83
EQRNSRGNTVLRAVKAKTHHLEP [W7G] | 5.71
EQRNSRTNTVLRAVKAKTHHLEP [W7T] | 5.14
EQRNSRMNTVLRAVKAKTHHLEP [W7M] | 5.33
EQRNSRVNTVLRAVKAKTHHLEP [W7V] | 4.88
EQRNSRSNTVLRAVKAKTHHLEP [W7S] | 5.32
EQRNSRLNTVLRAVKAKTHHLEP [W7L] | 4.66
EQRNSRCNTVLRAVKAKTHHLEP [W7C] | 5.2
EQRNSRANTVLRAVKAKTHHLEP [W7A] | 5.18
EQRNSRRNTVLRAVKAKTHHLEP [W7R] | 5.19
EQRNSRHNTVLRAVKAKTHHLEP [W7H] | 5.21
EQRASRWNTVLRAVKAKTHHLEP [N4A] | 2.5
EQRYSRWNTVLRAVKAKTHHLEP [N4Y] | 3.16
EQRKSRWNTVLRAVKAKTHHLEP [N4K] | 2.67
EQRQSRWNTVLRAVKAKTHHLEP [N4Q] | 3.1
EQRESRWNTVLRAVKAKTHHLEP [N4E] | 3.37
EQRVSRWNTVLRAVKAKTHHLEP [N4V] | 2.96
